Data on one molecule can be found in patent US10160812B2, “Bispecific HER2 antibodies” (MedImmune, LLC, priority 2014, dated 2018).

Several values for one entry are separate records, joined by “and”; a condition that tells them apart may be missing. Equal entries are not always repeated.

Experiment in all cases: ProteOn SPR binding of 39S to captured chimeric Her2 variants
In assay [1] the target is T1, chimeric human/mouse Her2 variants (Mus musculus, UniProt P70424, A197S/D184L/D202G/E308D/G218R/H204R/I215S/I220V/I273V/L174F/L284P/M185I/N203S/N319H/P182L/P194H/P210S/P318L/R175H/R231P/S223G/T199M/T222A/T299A/V173I/V183T).
T1 construct: His tag; made in house; host or cells: HEK293F (transient, pEBNA vector; captured from culture supernatant)
The settings on record: variant KI_II, human amino acids 146-310 grafted into mouse Her2; read-out: The binding affinity of 39S (KD). The text has this:
(§1) The domain II of human HER2 was identified as the epitope of 39S by swapping domains between human and mouse Her2 molecules. Mouse Her2 was chosen as the chimeric partner because it is not recognized by 39S, but shares 85% sequence identity with human HER2. Chimeric variants targeting each domain of HER2 were constructed (see method below) as listed in Table 4, including four knock-out (KO, loss-of-function) variants replacing domain I, II, III, or IV of human HER2 with the mouse counterpart, and one knock-in (KI, gain-of-function) variant grafting the domain II of human HER2 into mouse Her2 molecule. The chimeric variant nomenclature denotes types of variants (KO/KI) and the number of domains swapped. The binding profiles of 39S to these variants were characterized using a SPR based instrument ProteOn™ by capturing variants on sensor surfaces using anti-human and mouse Her2 polyclonal antibodies (see method below). The expression of the variants was monitored by anti-His polyclonal antibody using ProteOn™. […] Therefore, the domain II (amino acid 146-310) of human HER2 was identified as the epitope-containing domain of 39S by both loss-of-function and gain-of-function variants.
(§2) We further refined the epitope of 39S and identified the region of amino acid 192-208 in domain II as the critical epitope region. […] Seven knock-out variants were generated by replacing each of the following human HER2 regions with the mouse counterparts, including amino acids 146-208, 159-162, 171-187, 192-208, 250-261, 276-285, and 295-296. In addition, one knock-in variant was constructed by grafting the region of amino acid 192-208 of human HER2 to the mouse molecule. The variant nomenclature denotes types of variants (KO/KI) and the swapped regions with amino acid numbering. All variants had detectable expression levels by anti-His polyclonal antibody (Table 4). […] The binding of 39S was not impacted when substituting any other regions of human HER2 with mouse amino acids (KO_159-162, KO_171-187, KO_250-261, KO_276-285, and KO_295-296). […] Taken together, the region of amino acid 192-208 in domain II of human HER2 was identified as the functional epitope of 39S.
(§3) The variant nomenclature denotes types of variants (KO/KI) and the swapped regions with amino acid numbering. Amino acid positions were denoted basing on the numbering scheme of mature human HER2 sequences without its signal peptide. The expression levels of all variants were monitored by an anti-His polyclonal antibody. The binding profiles of 39S to these variants were characterized using a SPR based instrument ProteOn™ by capturing variants on sensor surfaces using anti-human and mouse Her2 polyclonal antibodies.
(§4) Construction and expression of chimeric human/mouse Her2 variants were constructed as follows. Briefly, DNAs encoding chimeric human/mouse Her2 variants with a His tag were assembled and amplified by overlapping PCR using human and mouse Her2 plasmids as templates (MedImmune). The assembled DNAs were cloned into the mammalian expression vector pEBNA (MedImmune). HEK293F cells were then transiently transfected with the various constructs using 293fectin and standard protocols according to the manufacturer's instructions (Invitrogen).
(§5) The binding characteristics of 39S to chimeric human/mouse variants were studied using a ProteOn™ XPR36 instrument (BioRad). Standard amine coupling was used to immobilize an anti-human or mouse Her2 polyclonal antibody (R&D System) in 10 mM sodium acetate (pH 5.0) to the surface of a GLC biosensor chip at ˜5000 resonance units (RU) for each channel. The chimeric proteins in cell culture supernatant were injected and captured by anti-human or mouse polyclonal antibodies onto the GLC surface with a ˜200RU response. Anti-HER2 mAb 39S was diluted in phosphate-buffered saline (PBS) (pH 7.4) with 0.005% Tween-20 from 10 nM to 0.625 nM (1:2 dilution), and injected at 100 μL/min for 180 sec with a 600-second dissociation time. […]

Assay [2] addresses T2, chimeric human/mouse Her2 variants (Homo sapiens, UniProt P04626, A298T/D307E).
T2 construct: His tag; made in house; host or cells: HEK293F (transient, pEBNA vector; captured from culture supernatant)
The settings on record: variant KO_276-285.
Text: as §1, §2, §3, §4, §5

The target in assay [3] is T3, chimeric human/mouse Her2 variants (Homo sapiens, UniProt P04626, A221T/G222S/P230R/R217G/S214I/V219I).
T3 construct: His tag; made in house; host or cells: HEK293F (transient, pEBNA vector; captured from culture supernatant)
The settings on record: variant KO_192-208.
Text: as §1, §2, §3, §4, §5

Assay [4] addresses T4, chimeric human/mouse Her2 variants (Mus musculus, UniProt P70424, G218R/I215S/I220V/R231P/S223G/T222A).
T4 construct: His tag; made in house; host or cells: HEK293F (transient, pEBNA vector; captured from culture supernatant)
The settings on record: variant KI_192-208, human amino acids 192-208 grafted into mouse Her2; read-out: The binding affinity of 39S (KD).
Text: as §1, §2, §3, §4, §5

B1: 39S: lead optimized monoclonal antibody derived from the 1.39.1 antibody; VH SEQ ID NO:15, VL SEQ ID NO:16 (antibody, V domains shown)
VH: EVQLVESGGGLVKPGGSLRLSCAASGFTFSSYSMSWVRQAPGKGLEWVSSISSSSSYIYYADSVKGRFTISRDNAKNSLYLQMNSLRAEDTAVYYCARGGDAYNYYYFDYWGQGTLVTVSS
VL: DIVMTQTPLSLSVTPGQPASISCKSSQSVFFRSNNKNILAWYLQKPGQPPQLLIYWASSRESGVPDRFSGSGSGTDFTLKISRVEAEDVGVYYCQQYFGSPFTFGPGTKVDIK
For B1, the dissociation constant Kd in assay [1] was 0.168 nM and 0.163 nM; in assay [4] it was 0.072 nM. In addition, the “The binding affinity of 39S (KD)” value in assay [2] is “not impacted”; in assay [3], “did not bind and No”.
